The results in this text go back to patent US10407662B2, “Method of culturing pluripotent stem cell, and polypeptide to be used therefor” (FUJIFILM Corporation, priority 2012, dated 2019).

The test system of series [1] is human iPS cells. Description: Cell Adhesiveness Evaluation 3 (RCP-1 addition amount series). The settings on record: adding not less than 125 pmol/cm^2. Type of series: cell-based. As to the method: Cell adhesiveness was evaluated in the same manner as in <Cell Adhesiveness Evaluation 1> except that RCP-1 was adjusted with PBS to have a concentration of from 125 pmol/cm^2 to 1000 pmol/cm^2 to be used. In Table 9, cell adhesion rates were relative values in a case in which a cell adhesion rate to a cultivation container to which natural vitronectin was adsorbed at a concentration of 130 pmol/cm^2 was regarded as 100. n=3.

The subject of series [2] is human iPS cells. Kind of series: Proliferation Evaluation of iPS cells on polypeptide-coated plate. Format: cell-based. The procedure: The iPS cells collected in the same manner as in <Cell Adhesiveness Evaluation 1>described above were seeded on a 96-well plate, to which RCP-1, RCP-11, and the natural human vitronectin were adsorbed, at a rate of 250 cells/well, and were cultured in a 5% CO2 incubator at 37° C. for 8 days. The number of adherent cells after each lapse of time was measured by the same method as in <Cell Adhesiveness Evaluation 1> described above, to obtain proliferation curves, The proliferation curves were indicated in FIG. 2. In FIG. 2, a black rhombus represents an example in which RCP-1 was used, while a black tetragon represents an example in which RCP-11 was used.
Similarly, each of samples from […] was prepared so as to have an addition concentration listed in Table 8 with each of from RCP-1 to RCP-10, and RCP-17, and Human Recombinant Laminin-511 as a reference, was seeded on a 96-well plate, to which each polypeptide was adsorbed, at a rate of 5000 cells/well in the same manner as in<Cell Adhesiveness Evaluation 1> described above, and was cultured in a CO2 incubator at 37° C. for 3 days. The number of cells after the 3 days was measured by the same method as in <Cell Adhesiveness Evaluation 1> described above.

A short description of series [3]: Evaluation of adsorptivity to culture plate (OPA fluorescence). Type of series: physicochemical. The following applies: FIG. 1; 0 to 200 pmol/cm^2, 37° C. 2 hours, washed with PBS twice. As to the method:
Each polypeptide obtained by the above-described method was diluted with a predetermined buffer so as to be added to wells at a predetermined final concentration of from 0 to 200 pmol/cm^2, and the resultant was aliquoted in 64 μL to a 96-well plate made of polystyrene and treated with plasma (Tissue Culture-Treated, Falcon). Each polypeptide was adsorbed to the plate by incubation at 37° C. for 2 hours, and was thereafter washed with PBS twice, to obtain a surface coated with each of the polypeptides of from RCP-1 to RCP-16.
To surfaces coated with RCP-1, and from RCP-11 to RCP-16 among the polypeptide-coated surfaces obtained as described above, 64 μL of each of boric acid buffer and 1 N NaOH was applied, and incubated at 80° C. and a humidity of 100% for 24 hours. After air-cooling, 75 μL of boric acid buffer was added to each well, and 50 μL of reaction liquid in which an OPA (o-phthalaldehyde: Wako Pure Chemical Industries, Ltd.)/methanol solution (160 mg/ml) and an NAC (N-acetyl-L-cysteine: Wako Pure Chemical industries, Ltd.)/boric acid buffer solution (2 mg/ml) were mixed at 1:100 (mass ratio) was further added. After incubation at 40° C. for 30 minutes, the fluorescence intensity thereof was measured (excitation of 355 nm/fluorescence of 486 nm) using an ENVISION MULTI-LABEL COUNTER (PerkinElmer Inc.). A calibration curve was separately made from each polypeptide solution, to calculate an amount of adsorption. In FIG. 1, a black rhombus, a black tetragon, a black triangle, a black circle, a white rhombus, a white tetragon, and a white triangle represent RCP-1, RCP-11, RCP-12, RCP-13, RCP-14, RCP-15, and RCP-16, respectively.

In series [4] the test system is human iPS cells. Kind of series: Evaluation of Maintenance of Undifferentiation (colony form, NANOG staining). Type of series: cell-based. As to the method:
iPS cells collected in the same manner as in <Cell Adhesiveness Evaluation 1> described above were suspended in TESR2. Induced pluripotent stem cells (iPS cells) were seeded on a 6-well plate (Tissue Culture-Treated, Falcon) to which each of the sample 1, the sample 2, the sample 5, the sample 6, and the sample 7 used in <Cell Adhesiveness Evaluation 1> described above was adsorbed in the same manner as in <Cell Adhesiveness Evaluation 1>, and were cultured in a CO2 incubator at 37° C. The culture medium was replaced by a fresh culture medium every day except the next day after the seeding. Subculture was performed by the same method as mentioned above every six days.
The cells were cultured under these conditions for 1 month, thereafter immobilized with 4% paraformaldehyde, and made to have membrane permeability enhanced with 1% Triton-X/PBS. Blocking treatment was performed with an Image IT Signal Enhancer (Invitrogen), followed by adding an anti-human NANOG antibody (AF1997, R&D Systems, Inc), ALEXA FLUOR 555-CONJUGATE rabbit anti-goat IgG antibody (Invitrogen), and DAPI (Dojindo Laboratories), by performing labeling, and by photographing the cells with a fluorescence microscope.
In each of FIG. 3 and FIG. 4, “A”, “B”, “C” “D”, and “E” show iPS cells cultured on RCP-1, iPS cells cultured on RCP-11, iPS cells cultured on the natural human vitronectin, iPS cells cultured on rinaminin-5, and iPS cells cultured on rLaminin-511, respectively. Scale bar: 100 μm. In FIG. 3, overall colony images are shown in the left column, while magnified images are shown in the right column; and in FIG. 4, DAPI-stained images are shown in the left column while anti-NANOG antibody-stained images are shown in the right column. Scale bars in FIGS. 3 and 4: 200 μm.

B1: RCP-1: recombinant polypeptide, Met + human vitronectin (SEQ ID NO:3) positions 1-55, 269-459 (protein)
chain: MDQESCKGRCTEGFNVDKKCQCDELCSYYQSCCTDYTAECKPQVTRGDVFTMPEDEPSQEECEGSSLSAVFEHFAMMQRDSWEDIFELLFWGRTSAGTRQPQFISRDWHGVPGQVDAAMAGRIYISGMAPRPSLAKKQRFRHRNRKGYRSQRGHSRGRNQNSRRPSRATWLSLFSSEESNLGANNYDDYRMDWLVPATCEPIQSVFFFSGDKYYRVNLRTRRVDTVDPPYPRSIAQYWLGCPAPGHL
modifications: Synthetic Peptide RCP-1
As to B1, the “adhesiveness of iPS cells (in words)” value in the series with human iPS cells [1] was “cell adhesion rate equivalent to that of natural vitronectin”. The “cell proliferation property (in words)” value in the series on human iPS cells [2] (FIG. 2 and Table 8) is recorded as “higher cell proliferation property than that of RCP-11”. For the same molecule, the “The Number (%) of Cells after 3 Days” value with human iPS cells [2] (addition amount 80 μg/cm^2, 5000 cells/well) came out at 100.0%. Moreover, the “adsorptivity to a plate” value in series [3] is recorded as “favorable adsorptivity to a plate, equivalent to that of RCP-11”. Also, the “form of iPS cell colonies” value in the series on human iPS cells [4] (FIG. 3, TESR2, subculture every six days) is “homogeneous colony and a form characteristic for undifferentiated cells having a high nucleus occupying rate”. The “NANOG expression (immunostaining)” value in the series with human iPS cells [4] (FIG. 4, cultured for 1 month) is listed as “strongly expressed NANOG in an overall colony”. Further, in the series on human iPS cells [4] (cultured for 1 month), the “maintenance of undifferentiated state” value was “undifferentiated state was favorably maintained”.
